In the nanobody polyreactivity screen of Harvey et al. (2022):

Experiment: yeast display, Sf9 membrane polyspecificity reagent, FACS + sequencing; frameworks hold sequencing errors
Method in brief: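 Galactose induction of a Saccharomyces cerevisiae BJ5465 synthetic nanobody display library ran 36–48 hours. The cells were then stained for 1 hour at 4 °C with 10% biotinylated, detergent-solubilized Sf9 membrane reagent, pulled down on streptavidin microbeads and FACS-sorted into low and high (top ~1%) gates on expression and reagent-binding fluorescence. Labels for polyreactivity follow the gate of origin.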

Sequence: QFQLVESGGGLVQAGGSLRLSCAASGGTFNQYAMGWYRQAPGKEREFVASISRRGGSTYYADSVKGRFTISRDNAKNTVDLQMNSLKPEDTAVYYCAADAFFRLDYYYWGQGTQVTVSS
- polyreactivity (PSR sort gate): high polyreactivity

Sequence: QVQLVESGGGLVQAGGSLRLSCAASGSIFSKNAMGWYRQAPGKERELLAAITLNGGSTYYADSVKGRFTNSRDNAKNTVYLQMNSLKPEDTSVFYFAKSDRQWWGYYYQFDYLGQGTQVTVSS
- polyreactivity (PSR sort gate): low polyreactivity

Sequence: QVQLVESGGGLVQAGGSLRLSCAASGRIFRYYAMGWYRQAPGKERELVASITYSGGRTNYADSVKGRFTISRDNAKNTVYLQMNSLKPEDTAVYYCNSAYVYYYPHYRYAPTAVDYDYWGQGTQVTVSS
- polyreactivity (PSR sort gate): low polyreactivity

Sequence: QVQLVESGGGLVQAGGSLRLICAASGRTFVYYAMGWYRQAPGKERELVAAITRSGGRTYYEDSVKGSFTISRDNAKNNVYLQMNSLKPEDTAVYYCAARYWDNPFWFDYWGQGTIVTVSS
- polyreactivity (PSR sort gate): high polyreactivity

Sequence: QVQLVESGGGLVQAGGSLRLSCAASGSTFIFNTMGWYRQAPGKERELVASITGDGRTNYADSVKGRFTISRDNAKNTVYLQMNSLKPEDTAVYYCAADGYDQYPLWAPPGDYWGQGTQVTVSS
- polyreactivity (PSR sort gate): low polyreactivity

Sequence: QVQLVESGGGLVQAGGSLRLSCAASGRIFPWNAMGWYRQAPGKERDLVAAISFSAGRTYYADSVKGRFTISRDNAKNTVYLQMNSLKPEDTAVYYCNARIGSRWVWTGIIGYEYWGQGTQVTVSS
- polyreactivity (PSR sort gate): low polyreactivity

Sequence: QVQLVESGGGLVQAGGSLRLSCAASGTILSFNAMAWYRQAPGKERELVAAMSRGGSTNYADSVKGRFTISRDNEKNTVYLQMNCLIPEDTAVYYCAALRPYGKEDVSDGGMDYWGQGTQVTVSS
- polyreactivity (PSR sort gate): high polyreactivity

Sequence: QVQLLESGGGLVQAGGSLRLSCAASGGTFPQYAMGWYRKAPGKERELVAVNTRSGRTNYADTVKARFTISRDNAKNTVYVQMNSLKPEDTAVYYCNADEVDDEVSPDLTEMDYWGQGTQVTVSS
- polyreactivity (PSR sort gate): low polyreactivity

Sequence: QVQLVESGGGLVQAGGSLRLSCAASGSIFSWYAMGWYRQAPGKERELVAAISNSGGSTYYADSVKGRFTISRDNAKNTVYLQMNSLKPEDTAVYYCAAYDGDTYDWGQGTQVTVSS
- polyreactivity (PSR sort gate): high polyreactivity

Sequence: QVQLVESAGALVQEGGSLRLICAASGFTFLKNAMGWYRQAPGKERELVDGISRSGGSTYYADSVKRRFTISRDKAKNPDYLQMNSQKPEDPAVYYCAAGTVQSYTWLPTRGDYWGQGSQVTVSS
- polyreactivity (PSR sort gate): high polyreactivity

Sequence: QVQLVESGGGLVQAGGSLRLTCAASGRTFGTYVMGWYIQAPGKERELVATISRRGGTTYYADSVKGRFTISRDNAKNTVYLQMNSLKPVDNAVYYCAATYFGTRYDYWGQGTQVTVSS
- polyreactivity (PSR sort gate): high polyreactivity

Sequence: QVQLVESGGGLVQAGGSLRLSCAASGRIFTYYAMGWFRQAPGKERELVAAISFRGSSTYYADSVKGRVTLSRDNAKNTVYLQRNSLKPEDTAVYYCAAERIARPTFDYWGQGTQVTVSS
- polyreactivity (PSR sort gate): low polyreactivity

Sequence: QVQHVESGGGLVQAGGSLRLSCAASGRTFRNYAMGWYRQAPGKERELVAAISSGGSTNYADSVKGRFTISRDNAKNTVYLQMNSLKPEDTAVYYCAARQRAYYGPGFDYWGQGTQVTVSS
- polyreactivity (PSR sort gate): low polyreactivity

Sequence: QVQLVESGGVLVQAGGRLRLSCAASGLTFNENVMGWYRQAPGKERELVAAISTGASTYYADSVKGRFTISRDNAKNTVYLQMNSLKPEDTAVYYCAKRVNRWYGYWGQGTQVTVSS
- polyreactivity (PSR sort gate): high polyreactivity

Sequence: QVQLVESGGGLVQAGGSLRLSCAASGIILTEYAMGWYRQAPGKERELVAAINRVGSTNYADSVKGRFTISRDNAKNTVYLQMNSLKPEDTAVYYCAAGTYYNDYDYWGQGTQVTVSS
- polyreactivity (PSR sort gate): low polyreactivity

Sequence: QVQLVESGGGLVQAGGSLRLSCAASGITFYGYAMGWYRQAPGKERELVAAISESGGSTYYADSVKGRFTISRDNAKNSVYLQMNRLKEEDTAVYYCASQGYSVYWYSNYWGQCTQVTVSS
- polyreactivity (PSR sort gate): low polyreactivity

Sequence: QVQLVESGGGLVQAGGSLRLSCAASGITLDRNYMGWYRQAPGKERELVAAISRSGVRTYYADSVKGRFTISRDNAKNTVYLQMNSLKPEDTAVYYCNKGYARRYASGYDYWGQGTQVTVSS
- polyreactivity (PSR sort gate): high polyreactivity

Sequence: QVQLVESGGGLVQAGGSLRLSCAASGRTLDRYAMGWYSPAPGKERELVAAIRWSTGSTYYADSVKGRFTISRDNAKNTVYLQMNSLKPEDTAVYYCAAELSYWWYFAMDYWGQGTQVTVSS
- polyreactivity (PSR sort gate): high polyreactivity

Sequence: QVQLVEAGGGLVQAGGSLRLSCASSGRIFPFNAMGRYRQAPGKEREFVAAIRLSGTRKYYADSVKGRFTISRDNAKNTVYLQMNSLKPEDTAVYYCAAKYSGHYYNYDYWGQGTQVTVSS
- polyreactivity (PSR sort gate): high polyreactivity

Sequence: QLQLVESGGGLVQAGGSLRLSCAASVRTFQNYAMGWYRQAPGKEREFVAAITWRVGTTYYADSVKGRFTISRDNAKNTVYLQMNSLKPEDTAVYYCAARSRTVRYDYWGQGSQVTVSS
- polyreactivity (PSR sort gate): high polyreactivity

Sequence: QVQLVESGGGLVQAGGSLRLRCAASGSIFHSYAMAWYSQAPGKEREMVASITASVDSTYYADSVKGRFTISRDNAKNTVYLQMNSLIPEDTAVYYCAAEAQFNFYSYDFWGQGTQVTVSS
- polyreactivity (PSR sort gate): low polyreactivity

Sequence: QVQLVESGGGLVQARGSLRLSCAASGRTFTSYAMGWYRQAPGKERELVAAISKRGGNTYYADSVKGRFTISRDNAKNTVYLQMNSLKPEDTAVYYCAARTWAGRWYGLDYWGQGTQVTVSS
- polyreactivity (PSR sort gate): high polyreactivity
